{
  "source": "paper PMC11109247",
  "about": "(Nature Communications, 2024)",
  "binders": {"B1": {"name": "1E5 Fab (Fab, V domains shown)", "VH": "QVQLQESGPGVVKPSETLSLTCAVSGGSISDTYRWSWIRQPPGKGLEWIGYIYGSATSTYYNPSLSSRVTISKDMSKNQFSLNLNSVTAADTAVYYCARDYQYYYSGSYPTPHNWFDVWGPGVLVTVSS", "VL": "DIQMTQSPSSLSASVGDRVTITCRASQGIIDYLSWYQQKPGKAPKLLISTASNLESGVPSRFSGSGSGTEFTLTISSLQPEDFATYSCLQGYTTPYTFGQGTKVEIK", "notes": "source: Expi293F, transient transfection, purified"}, "B2": {"name": "1E5 (antibody, V domains shown)", "VH": "QVQLQESGPGVVKPSETLSLTCAVSGGSISDTYRWSWIRQPPGKGLEWIGYIYGSATSTYYNPSLSSRVTISKDMSKNQFSLNLNSVTAADTAVYYCARDYQYYYSGSYPTPHNWFDVWGPGVLVTVSS", "VL": "DIQMTQSPSSLSASVGDRVTITCRASQGIIDYLSWYQQKPGKAPKLLISTASNLESGVPSRFSGSGSGTEFTLTISSLQPEDFATYSCLQGYTTPYTFGQGTKVEIK"}, "B3": {"name": "NiVMY G ectodomain (residues 72-602), His-tagged, used for structural determination (domain or fragment)", "chain": "NYTRSTDNQAVIKDALQGIQQQIKGLADKIGTEIGPKVSLIDTSSTITIPANIGLLGSKISQSTASINENVNEKCKFTLPPLKIHECNISCPNPLPFREYRPQTEGVSNLVGLPNNICLQKTSNQILKPKLISYTLPVVGQSGTCITDPLLAMDEGYFAYSHLERIGSCSRGVSKQRIIGVGEVLDRGDEVPSLFMTNVWTPPNPNTVYHCSAVYNNEFYYVLCAVSTVGDPILNSTYWSGSLMMTRLAVKPKSNGGGYNQHQLALRSIEKGRYDKVMPYGPSGIKQGDTLYFPAVGFLVRTEFKYNDSNCPITKCQYSKPENCRLSMGIRPNSHYILRSGLLKYNLSDGENPKVVFIEISDQRLSIGSPSKIYDSLGQPVFYQASFSWDTMIKFGDVLTVNPLVVNWRNNTVISRPGQSQCPRFNTCPEICWEGVYNDAFLIDRINWISAGVFLDSNQTAENPVFTVFKDNEILYRAQLASEDTNAQKTITNCFLLKNKIWCISLVEIYDTGDNVIRPKLFAVKIPEQCT"}},
  "key": {"[1]": {"biological_target": "T1, soluble NiVMY G ectodomain used for structural determination (residues 72-602, His tag) (Nipah virus Malaysia (NiVMY), UniProt Q9IH62)", "T1 construct": "source: Expi293F, transient transfection, purified", "test": "cryo-EM structure", "conditions": "both partners purified"}, "NiVBD G ectodomain": {"biological_target": "NiVBD G ectodomain (Nipah virus, Bangladesh (GenBank …, UniProt Q4VCP5, strain))", "test": "cell-based or functional assay"}, "NiVMY G ectodomain": {"biological_target": "NiVMY G ectodomain (Nipah virus, Malaysia (GenBank …, UniProt E2II03))", "test": "cell-based or functional assay"}, "HeV G ectodomain": {"biological_target": "HeV G ectodomain (Hendra virus (isolate …, UniProt O89343))", "sequence (O89343 71-604)": "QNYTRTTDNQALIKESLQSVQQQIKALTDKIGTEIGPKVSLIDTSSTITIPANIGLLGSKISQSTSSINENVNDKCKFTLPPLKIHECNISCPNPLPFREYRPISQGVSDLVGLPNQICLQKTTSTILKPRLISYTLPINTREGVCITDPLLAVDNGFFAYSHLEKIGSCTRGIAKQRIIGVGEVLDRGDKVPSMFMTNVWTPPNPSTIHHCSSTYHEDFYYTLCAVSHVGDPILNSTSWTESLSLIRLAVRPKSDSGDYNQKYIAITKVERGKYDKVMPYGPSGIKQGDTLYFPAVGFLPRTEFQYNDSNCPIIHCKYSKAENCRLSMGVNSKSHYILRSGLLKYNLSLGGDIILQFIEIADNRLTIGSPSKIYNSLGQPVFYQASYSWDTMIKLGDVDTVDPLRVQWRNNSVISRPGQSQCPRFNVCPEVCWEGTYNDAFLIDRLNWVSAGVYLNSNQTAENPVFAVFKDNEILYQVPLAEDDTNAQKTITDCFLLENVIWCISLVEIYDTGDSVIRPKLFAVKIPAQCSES", "test": "cell-based or functional assay"}, "[2]": {"biological_target": "the molecule itself", "test": "SDS-PAGE without reduction and boiling"}},
  "note": "Where “and” joins values, the source holds several entries; their conditions need not be identical. Equal values may be shown once.",
  "data": [
    {"binder": "B1", "values": [
      {"measurement": "binding result", "setting": "[1]", "result": "binds"}
    ]},
    {"binder": "B2", "values": [
      {"measurement": "IC50 of neutralisation of authentic NiV-BD (plaque reduction; Fig. 2o)", "setting": "NiVBD G ectodomain", "result": 0.0125, "unit": "mg/L"},
      {"measurement": "IC50 of neutralisation of authentic NiV-MY (plaque reduction; Fig. 2o)", "setting": "NiVMY G ectodomain", "result": 0.012, "unit": "mg/L"},
      {"measurement": "IC50 of neutralisation of authentic HeV (plaque reduction; Fig. 2o)", "setting": "HeV G ectodomain", "result": 0.147, "unit": "mg/L"}
    ]},
    {"binder": "B3", "values": [
      {"measurement": "stoichiometry N", "setting": "[2]", "result": "4 and 2"}
    ]}
  ]
}
